Measured values as given in US20120277143A1 (Janssen / Centocor, published 2012).
Substitutions are numbered along the chain they refer to. Each block holds one binder with its values, some of them ahead of it.

Legend:
human IL4 [1] = target: T1, human IL4 (human, UniProt P05112 25-153, biotinylated in the SPR and competition assays (sites not given)); assay: cell-based or functional assay
T1 sequence: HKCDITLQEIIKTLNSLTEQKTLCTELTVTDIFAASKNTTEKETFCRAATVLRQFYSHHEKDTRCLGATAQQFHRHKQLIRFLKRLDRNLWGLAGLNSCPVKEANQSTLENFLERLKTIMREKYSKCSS

human IL13 R130Q [2] = target: T2, human IL13 R130Q (human, UniProt P35225 35-146, biotinylated (sites not given)); assay: IL13Ra2 binding inhibition; repeats Table 17
T2 construct: Peprotech; also called IL13R13Q; R111Q
T2 sequence (P35225 35-146 limits assumed, stated change not applied): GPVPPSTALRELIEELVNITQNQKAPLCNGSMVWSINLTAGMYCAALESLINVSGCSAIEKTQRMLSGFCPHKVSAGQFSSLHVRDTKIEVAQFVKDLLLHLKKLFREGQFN
Experimental: (§1) Binding protein inhibition of IL13 binding to Rα2 was assessed using IL13Rα2-Fc (R&D Systems) conjugated to carboxylated Luminex microspheres according to the manufacturer's protocol. For biotinylation of IL13, recombinant human IL13 R130Q (Peprotech) was biotinylated at a 4:1 ratio using EZ-Link NHS-LC-Biotin (Pierce, #21336) for 2 hours at RT. The protein was dialyzed in PBS overnight to remove excess biotinylation reagent. For neutralization experiments, 5000 IL13 Rα2-Fc conjugated beads in 50 μl were added to each well of a 96-well filter plate (Millipore). 50 μl of biotinylated human IL13 at 1 ng/ml (80 pM) was mixed with an appropriate dilution of binding protein in Luminex Assay Buffer (PBS, 1% BSA, pH 7.4). The plate was incubated for 1 hour at RT in the dark on a plate shaker, set to shake vigorously to avoid bead aggregation. The plate was washed 3 times with 150 μl of wash buffer (PBS, 1% BSA, pH 7.4, 0.05% Tween-20) using a vacuum manifold followed by the addition of 50 μl of Streptavidin PE at 25 μg/ml and incubated at RT for 20 minutes. The plates were washed again and 100 μl of sheath fluid was added and the plate was placed on the shaker for 1 minute. Plates were read using a Luminex® 100 system; data were plotted as a function of binding protein concentration. IC₅₀ values were determined by fitting the data to the equation for sigmoidal dose response using PRIZM software (GraphPAD PRIZM).

human IL13 [3] = target: T3, human IL13 (human, UniProt P35225 35-146, biotinylated in the SPR assays (sites not given)); assay: cell-based or functional assay
T3 sequence (P35225 other isoform, or with tags, fused parts or gaps limits assumed): as the sequence (P35225 35-146 limits assumed, stated change not applied) above, with Q110R counted along it

human IL4 [4] = target: T1, human IL4; assay: IL4R binding inhibition; repeats Table 17
Experimental: AR protein inhibition of IL4 binding to IL4 RA was assessed using IL4 RA-Fc (R&D Systems), comprising the Gly24-His232 which represents the ECD (SEQ ID NO: 5) fused to a human IgGl-Fc and therefor a disulfide linked homodimer. The protein was conjugated to carboxylated Luminex microspheres according to the manufacturer's protocol. For neutralization experiments, 5000 IL4RA-Fc conjugated beads in 50 μl were added to each well of a 96-well filter plate (Millipore). Biotinylated human IL4 was mixed with an appropriate dilution of AR protein in Luminex Assay Buffer (PBS, 1% BSA, pH 7.4) to give a final concentration of 67 pM IL4. The plate was incubated for 1 hour at RT in the dark on a plate shaker, set to shake vigorously to avoid bead aggregation. The plate was washed twice with 150 μl of wash buffer (PBS, 0.1% BSA, pH 7.4, 0.05% Tween-20) using a vacuum manifold followed by the addition of 50 μl of Streptavidin PE at 25 μg/ml and incubated at RT for 20 minutes. The plates were washed again and 150 μl of sheath fluid was added and the plate was placed on the shaker for 5 minute. Plates were read using a Luminex® 100 system; data were plotted as a function of AR protein concentration. IC₅₀ values were determined by fitting the data to the equation for sigmoidal dose response using PRISM software (GraphPAD PRISM) (Table 6).

human IL4 [5] = target: T1, human IL4; assay: Affinity to IL4; method not re-described
human IL4 [6] = target: T1, human IL4; assay: IL4RA binding inhibition; assay not re-described (Luminex of Example 2)
human IL13 [7] = target: T3, human IL13; assay: Affinity to IL13; method not re-described
human IL13 R130Q [8] = target: T2, human IL13 R130Q; assay: IL13Ra2 binding inhibition; assay not re-described (Luminex of Example 2)
Experimental: as §1

human IL13 [9] = target: T3, human IL13; assay: cell-based or functional assay; remark: listed apart in the source
human IL13 [10] = target: T3, human IL13; assay: SPR ProteOn, biotin-hIL13 on streptavidin, 1:1 global fit
Experimental: Complete kinetic data describing binding of various engineered binding protein molecules to human IL13 was measured using a method similar to that described above for the single point affinity analysis. Briefly, streptavidin (Pierce) was immobilized to similar levels (˜1800 RUs) on all six channels of a ProteOn GLC chip via amine coupling (pH 5.0). Biotinylated hIL13 was captured at different surface densities (600˜100 RUs) on different channels. Protein binding was tested starting at 40 nM diluted in a 3-fold concentration series over the different density IL13 surfaces; a buffer sample was injected to monitor the baseline stability. Dissociation phases for all concentrations of each binding protein sample were monitored for one hour at a flow rate of 100 μl/min. Response data for all concentration series from the different density surfaces were globally fit to a 1:1 simple langmuir binding model to extract values of the kinetic (kₒₙ, koff) and affinity (KD) constants provided in Table 16.

A549/TARC IL4 IC50 (human IL4 [1]): 0.033 nM | HEK stat6 hIL4 IC50 (human IL4 [1]): 0.002 nM | Ramos Assay IC50 (human IL4 [1]): 0.0069 nM | IC50 (human IL13 R130Q [2]): 0.032 nM | A549/TARC IL13 IC50 (human IL13 [3]): 0.092 nM | HEK Stat6 human IL13 IC50 (human IL13 [3]): 0.019 nM | IC50 (human IL4 [4]): 0.024 nM | Kd (human IL4 [5]): 0.0031 nM | IC50 (human IL4 [6]): 0.024 nM | Kd (human IL13 [7]): 0.0166 nM | IC50 (human IL13 R130Q [8]): 0.032 nM
B1: C01_6G9_V1_C06_28E5_V1 (designed binder)
chain: DLDKKLLEAARAGQDDEVRILMANGADVNARDSYGSTPLHLAAREGHLEIVEVLLKYGADVNAADFIGDTPLHLAAYRGHLEIVEVLLKYGADVNASDITGETPLHLAAQIGHLEIVEVLLKHGADVNAQDKFGKTAFDISIDNGNEDLAEILQKLGGGGSGGGGSGGGGSGGGGSRSDLGKKLLEAARAGQDDEVRILMANGADVNAADDSGITPLHLAAEDGHLEIVEVLLKAGADVNAQDNLGDTPLHLAAWTGHLEIVEVLLKAGADVNAYDISGITPLHLAAFYGHLEIVEVLLKHGADVNAQDKFGKTAFDISIDNGNEDLAEILQKLN
notes: bispecific IL13/IL4 ankyrin repeat protein with (GGGGS)4 linker; also called bispecific AR protein

HEK STAT6 IC50 (human IL13 [9]): 0.0056 nM | Kd (human IL13 [10]): 0.0251 nM
B2: 6G9r13 (designed binder)
chain: ALDKKLLEAARAGQDDEVRILMANGADVNARDSYGSTPLHLAAREGHLEIVEVLLKYGADVNAADFIGDTPLHLAAYRGHLEIVEVLLKYGADVNASDITGETPLHLAAQIGHLEIVEVLLKHGADVNAQDKFGKTAFDISIDNGNEDLAEILQKAA
notes: optimized 6G9; expressed without HIS tag

HEK STAT6 IC50 (human IL13 [9]): 0.085 nM | Kd (human IL13 [10]): 0.0242 nM
B3: 7G11r7 (designed binder)
chain: GLDKKLLEAARAGQDDEVRILMANGADVNATDEFDSTPLHLAARHGHLEIVEVLLKYGADVNAADFIGDTPLHLAAYRGHLEIVEVLLKYGVDVNADDHGDTPLHLAASTGHLEIVEVLLKHGADVNAQDKFGKTAFDISIDNGNEDLAEILQKAA
notes: optimized 7G11; expressed without HIS tag

HEK STAT6 IC50 (human IL13 [9]): 0.202 nM | Kd (human IL13 [10]): 0.0656 nM
B4: 9F8r3 (designed binder)
chain: B3 chain with T31S, E33I, D35G, A64F, S109Q, T110I
notes: optimized 9F8; expressed without HIS tag

A549/TARC IL4 IC50 (human IL4 [1]): 0.05 nM | HEK stat6 hIL4 IC50 (human IL4 [1]): 0.0039 nM | Ramos Assay IC50 (human IL4 [1]): 0.008 nM | IC50 (human IL13 R130Q [2]): 0.199 nM | A549/TARC IL13 IC50 (human IL13 [3]): 0.131 nM | HEK Stat6 human IL13 IC50 (human IL13 [3]): 0.027 nM | IC50 (human IL4 [4]): 0.034 nM | Kd (human IL4 [5]): 0.0109 nM | IC50 (human IL4 [6]): 0.034 nM | Kd (human IL13 [7]): 0.0384 nM | IC50 (human IL13 R130Q [8]): 0.199 nM
B5: C06_53G6_V1_C01_6G9_V1 (designed binder)
chain: DLGKKLLEAARAGQDDEVRILMANGADVNATDDWGDTLLHLAATDGHLEIVEVLLKAGADVNANDAIGDTPLHLAALYGHLEIVEVLLKYGADVNATDLHGFTPLHLAAFWGHLEIVEVLLKHGADVNAQDKFGKTAFDISIDNGNEDLAEILQKLNGGGGSGGGGSGGGGSGGGGSDLDKKLLEAARAGQDDEVRILMANGADVNARDSYGSTPLHLAAREGHLEIVEVLLKYGADVNAADFIGDTPLHLAAYRGHLEIVEVLLKYGADVNASDITGETPLHLAAQIGHLEIVEVLLKHGADVNAQDKFGKTAFDISIDNGNEDLAEILQKLN
notes: bispecific IL4/IL13 ankyrin repeat protein with (GGGGS)4 linker; also called bispecific AR protein
